The source of these data is patent US20190233517A1.

Test [1] has as its target HER3 (UniProt P21860). Nature of the test: kinetic binding data, method not stated.
For test [2], the target named is Raji (human) (UniProt P11836). Nature of the test: FACS binding; Raji cells.
Test [3] addresses Daudi. Nature of the test: FACS binding; Daudi cells.

Raji (human), sequence (P11836 whole entry): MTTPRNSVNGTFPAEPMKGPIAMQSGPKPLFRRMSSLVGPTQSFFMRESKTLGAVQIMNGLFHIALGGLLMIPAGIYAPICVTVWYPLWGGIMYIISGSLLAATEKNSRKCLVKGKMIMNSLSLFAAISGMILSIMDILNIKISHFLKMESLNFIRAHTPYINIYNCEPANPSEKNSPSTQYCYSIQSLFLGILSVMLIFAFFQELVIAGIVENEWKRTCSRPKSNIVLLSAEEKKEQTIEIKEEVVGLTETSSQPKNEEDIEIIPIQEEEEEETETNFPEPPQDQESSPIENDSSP

With “FIT019a-Ig HER3 (patritumab)/EGFR (Panitumumab) (bispecific antibody)”, the Kd in test [1] is 0.0321 nM.

Consider Epratuzuman/ Ofatumumab (1:1), for which the EC50 in test [2] worked out at 3.25 nM.

In test [3], Epratuzumab/ Ofatumumab (1:1) yielded an EC50 of 6.98 nM.
